From US20040018558A1 (published 2004) come the findings set out here.

Where no end group is shown, it is not given here.

The target of assay [1] is T1, dark-adapted rhodopsin (bovine rod outer segment membranes) (bovine, UniProt P02699 1-348, retinylidene chromophore bound to Lys-296).
T1 construct: whole, on cells; also called dark-adapted bovine rhodopsin
As to the kind of experiment: LacI display panning, dark-adapted ROS membranes.

For assay [2], the target named is T2, rhodopsin (activation state not stated) (bovine, UniProt P02699 1-348).
T2 construct: whole, on cells; same protein as m1; also called EDTA-washed rhodopsin
As to the kind of experiment: ELISA of lysates, OD450 with receptor minus without receptor. As to the method: The methods of Example 7 repeated using rhodopsin screening with a Gt library. To identify the rank order of binding, the lysates were analyzed using ELISA methods in which the secondary antibody was conjugated to HRP. Following addition of the substrate, the microplate was read using a spectrophotometer. The binding is the OD₄₅₀ for wells with receptor—OD₄₅₀ for wells in which no receptor (control wells with empty lipid vesicles).
On the technique in general: In an ELISA, binding on a coated surface is turned into a signal by an enzyme label.

Assay [3] deals with T3, human thrombin receptor (PAR1) (human, UniProt P25116 42-425).
T3 sequence (looked up): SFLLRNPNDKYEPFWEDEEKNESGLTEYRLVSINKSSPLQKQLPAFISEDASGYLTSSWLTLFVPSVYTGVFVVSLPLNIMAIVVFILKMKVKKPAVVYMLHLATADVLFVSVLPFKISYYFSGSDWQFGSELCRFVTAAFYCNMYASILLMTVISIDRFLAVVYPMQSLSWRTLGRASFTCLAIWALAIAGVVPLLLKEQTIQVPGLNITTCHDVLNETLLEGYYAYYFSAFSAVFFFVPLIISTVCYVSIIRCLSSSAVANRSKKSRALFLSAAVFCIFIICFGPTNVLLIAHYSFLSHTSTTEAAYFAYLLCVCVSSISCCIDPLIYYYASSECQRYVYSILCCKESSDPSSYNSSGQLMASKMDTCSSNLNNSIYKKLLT
As to the kind of experiment: cell-based or functional assay.

The target of assay [4] is T4, light-activated rhodopsin (bovine rod outer segment membranes) (bovine, UniProt P02699 1-348, retinylidene chromophore bound to Lys-296).
T4 construct: whole, on cells; native receptor in membrane fragments immobilised on wells, not intact cells; also called metarhodopsin II; MII
Nature of the assay: LacI display panning, light-activated ROS membranes, peptide 8 added in rounds 3 and 4. As to the method:
The panning process is illustrated in FIG. 1. For screening of the library by “panning,” rhodopsin receptors prepared according to Example 5 were immobilized directly on Immulon 4 (Dynatech) microtiter wells (0.1-1 μg of protein per well) in cold 35 mM HEPES, pH 7.5, containing 0.1 mM EDTA, 50 mM KCl and 1 mM dithiothreitol (HEK/DTT). After shaking for one hour at 4° C., unbound membrane fragments were washed away with HEK/DTT. The wells were blocked with 100 μl 2% BSA in HEKL (35 mM HEPES; 0.1 mM EDTA; 50 mM KCl; 0.2 M α-lactose; pH 7.5, with 1 mM DTT). For rounds 1 and 2, BSA was used for blocking; in later rounds 1% nonfat dry milk was used. For the first round of panning, about 24 wells of a 96-well plate were used. In subsequent rounds, 8 wells with receptor and 8 wells without receptor were prepared.
To identify peptides having even higher affinity to light-activated rhodopsin than those identified by the panning procedure described in Example 7, a high affinity peptide was included in the library incubations in rounds three and four. […] Screening of the Gαt library was performed as in Example 7, except that 10 μL 100 μM ([…]) peptide 8 was included in the wells in rounds three and four. […] Residues L344, C347 and G348 remained stable whether peptide 8 was included in the screen or not.

The target of assay [5] is T4, light-activated rhodopsin (bovine rod …). As to the kind of experiment: not detailed in the sentence.

T1 sequence (P02699 whole entry): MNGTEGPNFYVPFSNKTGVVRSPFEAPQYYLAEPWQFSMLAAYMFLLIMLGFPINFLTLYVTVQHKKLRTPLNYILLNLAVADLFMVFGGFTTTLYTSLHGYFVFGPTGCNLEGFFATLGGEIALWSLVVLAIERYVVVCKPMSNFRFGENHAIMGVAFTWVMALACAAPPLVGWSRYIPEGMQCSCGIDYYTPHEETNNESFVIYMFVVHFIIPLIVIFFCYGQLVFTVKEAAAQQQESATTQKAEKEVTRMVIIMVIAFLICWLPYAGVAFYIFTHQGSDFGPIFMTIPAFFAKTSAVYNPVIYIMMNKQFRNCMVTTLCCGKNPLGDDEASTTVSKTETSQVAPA
T2 sequence (P02699 whole entry): as above
T4 sequence (P02699 whole entry, the tested form may be a part): as the sequence (P02699 whole entry) above

B1: Clone No. 2 (Table X) IREKWKDLALF (peptide, not shown: small tags and cut ends)
chain: IREKWKDLALF
modifications: also: fused to LacI carrier via linker, letters not given here
In the case of B1, the binding result in assay [1] is reported as “binds”.

B2: L7 MLDNLKDCGLF (peptide, not shown: small tags and cut ends)
chain: MLDNLKDCGLF
modifications: also: fused to lysate carrier and linker, not given here
For B2, the ELISA in assay [2] was found to be 0.525 OD450.

B3: L3 ILENLKDCGLF (peptide, not shown: small tags and cut ends)
chain: ILENLKDCGLF
modifications: also: fused to fusion carrier of the lysate via linker, not given here
Take B3: the ELISA in assay [2] turned out to be 0.839 OD450.

B4: L17 ILQNLKDCGLF (peptide, not shown: small tags and cut ends)
chain: ILQNLKDCGLF
modifications: also: fused to fusion carrier of the lysate via linker, not given here
Take B4: the ELISA in assay [2] worked out at 0.6 OD450.

B5: L6 ICENLKDCGLF (peptide, not shown: small tags and cut ends)
chain: ICENLKDCGLF
modifications: cysteine pairing not given here; also: fused to lysate carrier and linker, not given here
Molecule B5 registered an ELISA in assay [2] of 0.342 OD450.

B6: Gαq C-terminal minigene peptide (pcDNA-Gαq) (peptide)
peptide: MGLQLNLKEYNAV
Turning to B6, the “decrease in thrombin-mediated HA-MAPK activity against pcDNA” value (“decrease” below) in assay [3] turned out to be 57%.

B7: L33 IVEILEDCGLF (peptide, not shown: small tags and cut ends)
chain: IVEILEDCGLF
modifications: also: fused to fusion carrier of the lysate via linker, not given here
In the case of B7, in assay [2], the ELISA stood at 1.01 OD450.

B8: Gα13 C-terminal minigene peptide (pcDNA-Gα13) (peptide)
peptide: MGLHDNLKQLMLQ
In the case of B8, in assay [3], the “decrease” value was found to be 77%.

B9: Clone No. 41 (Table X) IRGTLKGWGLF (peptide, not shown: small tags and cut ends)
chain: IRGTLKGWGLF
modifications: also: fused to LacI carrier via linker, letters not given here
For the molecule B9, the binding result in assay [1] is “binds”.

B10: L34 ILESLNECGLF (peptide, not shown: small tags and cut ends)
chain: ILESLNECGLF
modifications: also: fused to fusion carrier of the lysate via linker, not given here
Regarding B10, the ELISA in assay [2] was 0.603 OD450.

B11: Clone No. 13 (Table IX) IRGSLKDCGLF (peptide, not shown: small tags and cut ends)
chain: IRGSLKDCGLF
modifications: also: fused to LacI carrier via linker, letters not given here
notes: also called L20
The molecule B11 showed an ELISA in assay [2] of 0.423 OD450.

B12: GαiR control minigene peptide (Gαi1/2 carboxyl terminus in random order) (peptide)
peptide: MGNGIKCLFNDKL
For B12, the “thrombin mediated increase of HA-MAPK activity” value in assay [3] was 4.46 fold.

B13: L10 IHDRLKDCGLF (peptide, not shown: small tags and cut ends)
chain: IHDRLKDCGLF
modifications: also: fused to fusion carrier of the lysate via linker, not given here
notes: first of two rows labelled L10
On to B13, for which the ELISA in assay [2] came out at 0.506 OD450.

B14: Clone No. 33/37 (Table X) SLEILKDWGLF (peptide, not shown: small tags and cut ends)
chain: SLEILKDWGLF
modifications: also: fused to LacI carrier via linker, letters not given here
For the molecule B14, the binding result in assay [1] is “binds”.

B15: L14 LRENLKDCGLL (peptide, not shown: small tags and cut ends)
chain: LRENLKDCGLL
modifications: also: fused to fusion carrier of the lysate via linker, not given here
Turning to B15, the ELISA in assay [2] was determined as 0.833 OD450.

B16: Clone No. 7 (Table X) IGEQIEDCGPF (peptide, not shown: small tags and cut ends)
chain: IGEQIEDCGPF
modifications: also: fused to LacI carrier via linker, letters not given here
For B16, in assay [1], the binding result is recorded as “binds”.

B17: Clone No. 3 (Table XVIII) ILENLKDCGLL (peptide, not shown: small tags and cut ends)
chain: ILENLKDCGLL
modifications: also: fused to LacI carrier via linker, letters not given here
As for B17, the binding result in assay [4] was “binds”.

B18: Gαi C-terminal minigene peptide (pcDNA-Gαi) (peptide)
peptide: MGIKNNLKDCGLF
As for B18, the “decrease” value in assay [3] came to 59%.

B19: L15 VRDILKDCGLF (peptide, not shown: small tags and cut ends)
chain: VRDILKDCGLF
modifications: also: fused to fusion carrier of the lysate via linker, not given here
Molecule B19 showed an ELISA in assay [2] of 0.621 OD450.

B20: L38 LLDILKDCGLF (peptide, not shown: small tags and cut ends)
chain: LLDILKDCGLF
modifications: also: fused to lysate carrier and linker, not given here
B20: the ELISA in assay [2] worked out at 0.823 OD450.

B21: L4 MLDNLKACGLF (peptide, not shown: small tags and cut ends)
chain: MLDNLKACGLF
modifications: also: fused to lysate carrier and linker, not given here
B21 gave an ELISA in assay [2] of 0.908 OD450.

B22: Clone No. 3 (Table X) VRDNLKNCFLF (peptide, not shown: small tags and cut ends)
chain: VRDNLKNCFLF
modifications: also: fused to LacI carrier via linker, letters not given here
Turning to B22, the binding result in assay [1] is recorded as “binds”.

B23: Clone No. 26 (Table X) IRENFKYLGLW (peptide, not shown: small tags and cut ends)
chain: IRENFKYLGLW
modifications: also: fused to LacI carrier via linker, letters not given here
Regarding B23, the binding result in assay [1] was “binds”.

B24: Clone No. 17 (Table X) IRNNLKRYGMF (peptide, not shown: small tags and cut ends)
chain: IRNNLKRYGMF
modifications: also: fused to LacI carrier via linker, letters not given here
For B24, the binding result in assay [1] was “binds”.

B25: Peptide 8 (LLENLRDCGMF) (peptide)
peptide: LLENLRDCGMF
notes: also called HAP
Consider B25, for which the “fold binding against the native sequence” value in assay [5] came to 1000 fold.

B26: L10 IRDNLKDCGLF (peptide, not shown: small tags and cut ends)
chain: IRDNLKDCGLF
modifications: also: fused to fusion carrier of the lysate via linker, not given here
notes: second of two rows labelled L10
As for B26, the ELISA in assay [2] came out at 0.162 OD450.

B27: Clone No. 21 (Table X) IRENLKDLGLV (peptide, not shown: small tags and cut ends)
chain: IRENLKDLGLV
modifications: also: fused to LacI carrier via linker, letters not given here
As to B27, the binding result in assay [1] is recorded as “binds”.

B28: L13 ISKNLRDCGLL (peptide, not shown: small tags and cut ends)
chain: ISKNLRDCGLL
modifications: also: fused to fusion carrier of the lysate via linker, not given here
In turn, B28 had an ELISA in assay [2] of 0.187 OD450.

B29: Gα12 C-terminal minigene peptide (pcDNA-Gα12) (peptide)
peptide: MGLQENLKDIMLQ
For the molecule B29, in assay [3], the “decrease” value stood at 50%.

B30: L8 IVKNLEDCGLF (peptide, not shown: small tags and cut ends)
chain: IVKNLEDCGLF
modifications: also: fused to lysate carrier and linker, not given here
In assay [2], B30 returned an ELISA of 0.257 OD450.
